Measurements reported in article PMC2924745 (Nature structural & molecular biology, 2010).

T1: BtuCD, the E. coli vitamin B12 ABC transporter (His-tagged) (Escherichia coli, UniProt P06609;P06611)
T1 sequence 1: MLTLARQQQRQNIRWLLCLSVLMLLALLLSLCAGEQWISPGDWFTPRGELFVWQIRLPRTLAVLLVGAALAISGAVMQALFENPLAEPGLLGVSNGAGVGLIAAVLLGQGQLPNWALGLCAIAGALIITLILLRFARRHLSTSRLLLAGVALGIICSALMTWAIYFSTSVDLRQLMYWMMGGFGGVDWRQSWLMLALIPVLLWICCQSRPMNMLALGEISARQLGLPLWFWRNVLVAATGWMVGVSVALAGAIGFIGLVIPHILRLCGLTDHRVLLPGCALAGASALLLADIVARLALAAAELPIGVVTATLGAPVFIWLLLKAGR
T1 sequence 2: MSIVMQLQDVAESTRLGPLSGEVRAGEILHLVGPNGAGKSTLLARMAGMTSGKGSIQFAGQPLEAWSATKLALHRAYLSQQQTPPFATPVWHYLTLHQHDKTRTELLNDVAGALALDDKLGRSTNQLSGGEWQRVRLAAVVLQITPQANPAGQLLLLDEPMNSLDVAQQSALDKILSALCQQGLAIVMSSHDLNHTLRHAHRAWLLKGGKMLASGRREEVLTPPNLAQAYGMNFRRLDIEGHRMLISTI


Tests used:
[1] = molecular target: MetIN, the E. coli D/L-methionine ABC importer (His-tagged) (Escherichia coli) (UniProt P30750); assay: SPR
Sequence of MetIN, the E. coli D/L-methionine ABC importer (His-tagged) (Escherichia coli) (P30750 whole entry, chain 1 of 2): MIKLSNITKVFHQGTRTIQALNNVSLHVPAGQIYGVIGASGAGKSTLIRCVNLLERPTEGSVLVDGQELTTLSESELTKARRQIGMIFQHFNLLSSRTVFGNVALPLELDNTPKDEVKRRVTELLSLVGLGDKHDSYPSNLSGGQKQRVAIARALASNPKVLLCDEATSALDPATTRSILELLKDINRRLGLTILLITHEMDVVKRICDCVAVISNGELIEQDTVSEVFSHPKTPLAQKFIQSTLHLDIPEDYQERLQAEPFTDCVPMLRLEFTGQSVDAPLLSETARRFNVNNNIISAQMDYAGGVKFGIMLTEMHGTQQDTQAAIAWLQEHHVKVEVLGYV
Sequence of MetIN, the E. coli D/L-methionine ABC importer (His-tagged) (Escherichia coli) (P31547 whole entry, chain 2 of 2, further chain): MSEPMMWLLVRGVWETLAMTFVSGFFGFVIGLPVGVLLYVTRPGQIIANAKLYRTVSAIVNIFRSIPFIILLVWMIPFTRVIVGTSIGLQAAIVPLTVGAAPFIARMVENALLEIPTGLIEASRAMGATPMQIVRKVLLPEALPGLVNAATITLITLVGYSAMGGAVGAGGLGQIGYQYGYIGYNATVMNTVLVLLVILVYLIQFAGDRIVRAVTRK

[2] = molecular target: T1, BtuCD, the E. coli vitamin B12 ABC …; assay: cell-based or functional assay
[3] = molecular target: T1, BtuCD, the E. coli vitamin B12 ABC …; assay: co-sedimentation

Molecule | Kd [1] [µM] | stimulation of ATP hydrolysis rate of BtuCD [2] [fold] | Kd [3] [µM]
MetQ, the binding protein of the E. coli D/L-methionine importer (from UniProt P28635 23-271) (natural protein) | 74 |  | 
BtuF, the vitamin B12 binding protein of E. coli, with a C-terminal FLAG tag (natural protein) APRVITLSPANTELAFAAGITPVGVSSYSDYPPQAQKIEQVSTWQGMNLERIVALKPDLVIAWRGGNAERQVDQLASLGIKVMWVDATSIEQIANALRQLAPWSPQPDKAEQAAQSLLDQYAQLKAQYADKPKKRVFLQFGINPPFTSGKESIQNQVLEVCGGENIFKDSRVPWPQVSREQVLARSPQAIVITGGPDQIPKIKQYWGEQLKIPVIPLTSDWFERASPRIILAAQQLCNALSQVD |  | < 2 | < 0.02
